Experimental data: article PMC4376737, “An S188V Mutation Alters Substrate Specificity of Non-Stereospecific α-Haloalkanoic Acid Dehalogenase E (DehE)” (PLoS ONE, 2015)

Assays:
Conditions in all cases: 0.1 M Tris-acetate pH 7.6, 30°C, apparent
C[C@@H](Cl)C(=O)O [1] = test system: T1, C[C@@H](Cl)C(=O)O; assay: colourimetric chloride release (Bergmann and Sanik), A460; format: biochemical, Rhizobium sp. RC1
T1 construct: recombinant from pET-22b(+)-dehE in E. coli, purified from cell-free extract; 32 kDa band on SDS-PAGE; monomeric
Excerpt: (§1) colourimetric chloride release (Bergmann and Sanik), A460 on DehE (non-stereospecific α-haloalkanoic acid dehalogenase E)

O=C(O)CCCl = test system: T2, O=C(O)CCCl; assay: as above; format: biochemical, Rhizobium sp. RC1
T2 construct: recombinant from pET-22b(+)-dehE in E. coli, purified from cell-free extract; 32 kDa band on SDS-PAGE; monomeric
Excerpt: as §1

C[C@H](Cl)C(=O)O [2] = test system: T3, C[C@H](Cl)C(=O)O; assay: as above; format: biochemical, Rhizobium sp. RC1
T3 construct: recombinant from pET-22b(+)-dehE in E. coli, purified from cell-free extract; 32 kDa band on SDS-PAGE; monomeric
Excerpt: as §1

C[C@H](Cl)C(=O)O [3] = assay: purified protein
C[C@@H](Cl)C(=O)O [4] = assay: purified protein

Row | Substance | Km (C[C@@H](Cl)C(=O)O [1]) | kcat (C[C@@H](Cl)C(=O)O [1]) | kcat/Km (C[C@@H](Cl)C(=O)O [1]) | Km (O=C(O)CCCl) | kcat (O=C(O)CCCl) | kcat/Km (O=C(O)CCCl) | Km (C[C@H](Cl)C(=O)O [2]) | kcat (C[C@H](Cl)C(=O)O [2]) | kcat/Km (C[C@H](Cl)C(=O)O [2]) | Km (C[C@H](Cl)C(=O)O [3]) | kcat (C[C@H](Cl)C(=O)O [3]) | kcat/Km (C[C@H](Cl)C(=O)O [3]) | Km (C[C@@H](Cl)C(=O)O [4]) | kcat (C[C@@H](Cl)C(=O)O [4]) | kcat/Km (C[C@@H](Cl)C(=O)O [4])
1 | DehE (non-stereospecific α-haloalkanoic acid dehalogenase E) (Rhizobium sp. RC1; S188V) | (4.5 ± 0.01) x 10^-4 M | 9.18 s⁻¹ | 20400 M⁻¹ s⁻¹ | (4.9 ± 0.02) x 10^-4 M | 12.6 s⁻¹ | 25600 M⁻¹ s⁻¹ | (4.2 ± 0.02) x 10^-4 M | 13.1 s⁻¹ | 31200 M⁻¹ s⁻¹ | – | – | – | – | – | –
2 | DehE (non-stereospecific α-haloalkanoic acid dehalogenase E) (Rhizobium sp. RC1) | – | – | – | – | – | – | – | – | – | (4.3 ± 0.02) x 10^-4 M | 12.3 s⁻¹ | 28600 M⁻¹ s⁻¹ | (4.8 ± 0.03) x 10^-4 M | 7.76 s⁻¹ | 16100 M⁻¹ s⁻¹
